The values that follow come from the nanobody polyreactivity screen of Harvey et al. (2022).

The nature of the data set: yeast display, Sf9 membrane polyspecificity reagent, FACS + sequencing; frameworks hold sequencing errors. The gist of the method:
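Polyreactivity labels are assigned by the sorting gate from which each nanobody was recovered. The gates were low and high (top ~1%), set on anti-HA fluorescence for expression and streptavidin fluorescence for reagent binding. Before sorting, galactose-induced (36–48 hours) yeast display cells were stained for 1 hour at 4 °C with 10% biotinylated, detergent-solubilized Sf9 membrane reagent.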
On to “QVQLVESGGGLVQAGGSLRLSCAASGRTFGPYAMGWYRQAPGKERELVAAISRSGGRTYYADSVKGRFTISRDNAKNTVYLQMNSLKPEDTAVYYCAARYYSEPNAYYYWGQGTQVTVSS”, for which the “polyreactivity (PSR sort gate)” value was “high polyreactivity”.

Turning to “QVQIVESGGGLVQAGGSLRLSCAASGSIFPRMAMGWYIQAPGKERELVAAITTGGITNYADSVKGRFTISRDHAKNTVYLQMNSLNPDDTAVYYCAATSWRYQQSTRYKGRRYYSWGQGTQVTVSS”, the “polyreactivity (PSR sort gate)” value is reported as “high polyreactivity”. The same measure for “QVQLVESGGGLVQAGGSLSLSCAASGRTIAYYAMGWDRQAPGKEMEFVAAISSTGTSTYYADSVKGRFTISRDNAKNTVYLQMNSLKPEDTGVYYCNARVATYRLHSKFYYWGQRTQVTVSS”: “high polyreactivity”; for “QVQLVESGGGLVQAGGSLRLSCAASGYIFDGNAMGWYRQAPGKERELVAPITWTGGSTYYADSVKGRFTISRDNAKNTVYLQMNSLKPEDTAVYYCAKPYDPGPYHSSYRATDDYWGQGTQVTVSS”: “low polyreactivity”; for “QVQLVESGGGLVQAGGSLRLSCAASGRIFHYYAMGWYRQAPGKERELVASISTGGNTYYADSVKGRFTISRDNAKNTVYLQMNSLKPEVTAVYYCAAVTVRKFYKGINYWYEYWGEGTQVTVSS”: “high polyreactivity”.

For “QLQLVESGGGLVQAGGSLRLSCAASGIIFIYNGMGWYRQAPGKERELVATINWSGGNTYYADSVKGRFTISRDNAKNTVYLQMNSLKPEDTAVYYCAVRGSRYWGYDYWGQGTQVTVSS”, the “polyreactivity (PSR sort gate)” value is reported as “low polyreactivity”. For the sequence “QVQLVESGGGLVQAGGSLRLSCAASGRTFSKYVMGWYRQAPGKERELVATITSGGSTYYADSVKGRFTISRDNAKNTVYLQMNSLKPEDTAVYYCAARIWYYNYWGQGTQVTVSS”, the “polyreactivity (PSR sort gate)” value is recorded as “high polyreactivity”. The entry for “QVQLVESGGGLVQAGGSLRLSCAASGFTFWTYAMGWYRQAPGKERELVAAIDSGGSTYYADSVKGRFTISRDNAKNTVYLQMNSLKPEDSAVYYCNAGPSVTSGYDYDYWGQGTQVTVSS” is “low polyreactivity”; for “QVQLVESGGGLVQAGGSLRLSCAASGSTGFYGMGWYRQAPGKERELVAAITFRSGSTYYADSVKGRFTISRDNAKNTVYLQMNSLKPEDTAVYYCAAYSFNNGHRYDYWGQGTQVTVSS” it is “high polyreactivity”; for “QVQIVESGGGLFQAGGSLRLSCAASGITFVFYAKRRYRQAPGKERELVAAISSSGGSTYYADSVKVRFTISRDYAKNSVYLQMKSLKPDDTAVYYCNAIVFSYQRAVRYDYWGQGTQVTVSS” it is “high polyreactivity”. As to “QVQLVESGGGLVQAGGSLRLSCAASGSTFVVYAMGWYRQAPGKERELVAAIDLSVGDTYYADSVKGRFTISRDNAKNTVYLQMNSLKPEDTAVYYCAAEFYSYKYPDYDYWGQGTQVTVSS”, the “polyreactivity (PSR sort gate)” value is recorded as “low polyreactivity”.

Consider “QVQLVESGGGFVQAGVSLRLSCAASGLILVPNTMGWYRQAPGKERELVATITNGGSTNYADSVKGRFTISRDNAKNTVYLQMNSLKPEDTAVSYCNADHSYHIASTRHVDYWGQGTQVTVSS”, for which the “polyreactivity (PSR sort gate)” value is “low polyreactivity”.

In the case of “QVQLVESGGGLVQEGGSLRLSCAASGINFNVNALGWYKQAPGKERELVARITTSGGSTSYADSVKGRFTISRDNAKNTVYLQMNSLKPDDTAVYYCAADRARYYSEYDYWGQGTQVNVSS”, the “polyreactivity (PSR sort gate)” value is “low polyreactivity”.

For “QVQLVESGGGLVQAGGSLRLSCAASGRTFAGNAMGWYRQAPGKEREMVAAISVSGSTTYYADSVKGRFTISRDNAKNTVYLQMNSLKPEDTAVYYCAARGLTYRSDMYYWGQGTQVTVSS”, the “polyreactivity (PSR sort gate)” value was “low polyreactivity”. The same measure for “QVQLVESGGGLVQAGGSLRLSCAASGSTFDGYAMGWYRQAPGKERELVAAITSSSTSTYYADSVKGRFTISRDNAKNTVYLQMYSLKPEDTAVYYCAAQYFSYISVYSFYTMGYWGQGTQVTVSS”: “low polyreactivity”; for “QVQLVESGGGLVQAGGSLRLSCAASGSILYVNAMGWYRQAPGKERELVASITDGGNTYYADSVKGRFTISRDNAKNTVYLQMNSLKPEDTAVYYCNAVGRIKVDYGLEYWGQGTQVTVSS”: “low polyreactivity”; for “QVQLVESGGCLVQAGGSLRLSCAASGRTFVNNAMGWYRQAPGKYRELVAAITRSGGLTYSADSVKGRFTISRDHAKNTVYLQMTMLKPEYTAVYDCATAIVRLRHDDDWGQGTQVTVSS”: “high polyreactivity”.

In the case of “QDQLVESGGGLVQAGGSLRLSCAASGFNFDRYAMGWYRQAPGKERELVAAISRRGGSTYYADSVKGRFTISRDNAKNTVYLQMNSQKPEDTAVYYCAASRPSPRPRYGYWGQGTQVTVSS”, the “polyreactivity (PSR sort gate)” value is “high polyreactivity”. The same measure for “QVQLVESGGGIVQAGGSLRLSCAASGSIFQWYAMGWYRQAPGKERELVAAISFNGGITYYADSVKGRFTISRDNANNTVYLQMNSLKPEDTAVYYCATEYRSASGDYDYWGQGTQVTVSS”: “low polyreactivity”; for “QVQLVESGGGLVQAGGSLRLSCAASGRIFRYNTMGRNRHAPGKEREFVAAISYRGASTYYADSVKGRFTISRDNAKNNVYLQMNSLKPEDTAVYYCAAVTISKGFYPYDYWGQGTQVSVSS”: “high polyreactivity”; for “QVQLVESGGGLVQAGGSLRLSCAASGRILTLYAMGWYRQAPGKERELVAGINRGDVSTYYADSVKGRFTISRDNAKNSVYLQMNSLKPEDTAVYYCYADPPPDYYPDKDNYWGQGSQVTVSS”: “low polyreactivity”. Turning to “QVQLVESGGGLVQAGGSLRLSCAASGFNFIYYAMGWYRQAPGKERELVAAISRRGGSTYYADSVKGRFTISRDNAKNTVYLQMNSLKPEDTAVYYCAADYTSAILRSDYWGQGTQVTVSS”, the “polyreactivity (PSR sort gate)” value is “high polyreactivity”.

As for “QVQLVESGGGLVQAGGSLRLSCAASGFIFSGYAMGWYRQAPGKERELVATISGSGGSTYYADSVKGRFTISRDNAKNTVYLQMNSLKPEDTAVYYCNALYASSVRHKVTYDYWGQGTQVTVSS”, the “polyreactivity (PSR sort gate)” value is given as “high polyreactivity”. The same measure for “QVQLVESGGGLVQAGGSLRLSCAASGRTFTTYTMGWYRQAPGKERELVAAISWGGTSTYYADSVKGRFTISRDNAKNTVYLQMNSLKPDDTAVYYCNVLERGPGGPDDSWGQGTQVTVSS”: “low polyreactivity”. The entry for “QVQLVESGGGLVQAGGSLRLSCAATGSIFTAYDMGWYRQAPGKERELVAAINVSAGTTYYADSVKGRFTISRDNAKNTVYLQMNSLKPEDTAVYYCATDRSPTPYTRENIYDYWGQGTQVTVSS” is “low polyreactivity”. The same measure for “QVQLVESGVGLVQAVGSLRLSCAASGSTFYYYAMGWYRQAPGKERELVAAISWSGAYTFYSDSVKGRFTISRDNAKNTVYLQMNSLKPEDTAVYYCAARYYGQPQYQPLYYWGQGTQVTVSS”: “high polyreactivity”. As for “QVQLVESGGGLVQAGGSLRLSCAASGYIFTEYAMGWYRQAPGKERELVAAIDWSGGSTYYADSVKGRFTISRDNAKNTVYLQMNSLKPEDTAVYYCAKYYYTSIVGYDSWGQGTQVTVSS”, the “polyreactivity (PSR sort gate)” value was “low polyreactivity”. The same measure for “QVQLVESGGGLVQAGGSLRLSCAASGFTFQRNAMGWYRPAPGKERELVAAISKSGGSTYYADSVKGRFTISRDNAKNTVYLQMNSLKPEDTAVYYCARDRGYQSGYDYWGQGTQVTVSS”: “high polyreactivity”. The same measure for “QVQLVESGGGLVQAGGSLRLSCAASGSTLFYAMGWYRQAPGKERELHAAISWSGGSTRYADSVKGRFTISRDNAKNTVYLQMNIMKPEDTAVYYCNTYTKHTGYYWKYDYWGQGTQVTVSS”: “low polyreactivity”; for “QVQLVESGGGLVQAGGSLRLSCAASGRIFGVYVMGWYRQAPGKETELVAAISWSGSHTYYADSVKGRFTISRDNAKNTVYLQMNSLKPEDTAVYYCNADSYPDYTGPGLDWYDYWGQGTQVTVSS”: “low polyreactivity”.

On to “QVQLVESGGALVQAGGSLRLICAASGSTFDSNVKGWSRTAPGKERELVAVINGSGSNTYYADSVKGRFTISRDNAKNTVYLQMNSLKPEDTAVYYCNKRYWGGRYGYDYWGQGTQVTVSS”, for which the “polyreactivity (PSR sort gate)” value is “high polyreactivity”. On to “QVQLVESGGGLVQAGGSLRLSCAASGRTFTRYAMGWYRQAPGKERELVAAISWSGGSTYYADSVKGRFTISRDNAKNTVYLQMNSLKPEDTAVYYCNAYYYYPEFNYWGQGTQVTVSS”, for which the “polyreactivity (PSR sort gate)” value was “high polyreactivity”. On to “QVQLVESGGGLVQAGGSLRISCAPSGIIFGYNVMGRYRQAPGKERELVAAISGSGASTYYADSVKGRFTISRDNAKNTVYLQMNSLKPEDTAVYYCARYRGYWGRYYGVDYGYWGQGTQVTVSS”, for which the “polyreactivity (PSR sort gate)” value is on record as “high polyreactivity”. Consider “QVQLVESGGGLVQEGGSLRLSCAASGLISQRNVMGWYRQAPGKERELVARISTSSSGTYYADSVKGRFTISRDNAKNTFYLHMYSLKPEYTAVYYCAVRYRGGAARQIYDYWGQGTQVTVSS”, for which the “polyreactivity (PSR sort gate)” value was “high polyreactivity”. For “QVQLVESGGGLVQAGGSLRLSCAASGSIIWFYAMGWYRQAPGKEWELVAAISGSDTSTYYADSVKGRFTISRDNAKNTVYLQMNSLKPEDTSVYYCAADDGTTFGYGYWGQGTQVTVSS”, the “polyreactivity (PSR sort gate)” value is “low polyreactivity”. In the case of “QVQLVESGGGLVQAGGSLRLSCAASGSICAFYGMRWYRQAPGKERELVAAITRSGGSTYYADSVKGRFTISRDNAKNTVYLQMNSLKAEDTAVSYCAKRPHHGSTKYNYWGQGTQVTVSS”, the “polyreactivity (PSR sort gate)” value is “low polyreactivity”. As to “QVQLVESGGGLVQAGGSLRLSCAATGRTFSSYAMGWYRQAPGKEREFLARISSSRGRTSYADSVKGRFTISRDNAKNTVYVQMNSLKPEDTAVYYCAARPPYRVGIVPLGRREYYWGRGTQVTVSS”, the “polyreactivity (PSR sort gate)” value is listed as “high polyreactivity”. The same measure for “QVQLVESGGGLVQAGGSLRLSCAASGFTFNRNAMGWYIQAPGKERELVAAISWSGGSTYYADSVKGRFTISRDNAKNTVYLQMNSLKPQDTEVYYCAKGYRRVYGPFYFWGQGTQVTVSS”: “low polyreactivity”. The same measure for “QVQLVESGGGLVQAGGSLRLSCAASGIIFRSYAMGWYRQAPGKERELVAAITGGGTTNYADSVKGRFTISRDNAKNTVYLQMNSLKPEDTEVYYCNAGLDWFWFNEMDYWGQGTQVTVSS”: “low polyreactivity”; for “QVQLVESGGGLVQAGGSLRLSCAASGRIFTRSAMGWYRQAPGKERELVAVITRSGGSTYYADSVKGRFTISRDNAKKTVYLQMNSLKPEDTAVYYCAAKYYGEMYYWGQGTQVTVSS”: “low polyreactivity”.
